Experimental data: patent publication US20240002495A1 (MITSUBISHI TANABE PHARMA, published 2024)
Where a chain is given by its changes, count along the chain named.

T1: biotinylated 6His tag-AviTag-linked mature human IL-33 (residues 112 to 270) (human, UniProt O95760 112-270, biotin on the AviTag portion (BirA))
T1 construct: made in E. coli; also called biotinylated human IL-33 protein
T1 sequence: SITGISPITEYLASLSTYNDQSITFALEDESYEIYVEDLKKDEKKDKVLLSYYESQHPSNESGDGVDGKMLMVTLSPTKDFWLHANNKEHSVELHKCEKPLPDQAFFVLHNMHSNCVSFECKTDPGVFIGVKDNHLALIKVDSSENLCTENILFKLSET

T2: 6His-AviTag-linked cynomolgus monkey IL-33 (residues 112 to 269) (cynomolgus monkey, UniProt O95760 112-269 (human entry), biotin on the AviTag portion (BirA) in the SPR of Example 7; used without biotinylation in Example 10)
T2 construct: GenBank EHH57404 printed; also called cynomolgus monkey IL-33 protein; mature cynomolgus monkey IL-33
T2 chain: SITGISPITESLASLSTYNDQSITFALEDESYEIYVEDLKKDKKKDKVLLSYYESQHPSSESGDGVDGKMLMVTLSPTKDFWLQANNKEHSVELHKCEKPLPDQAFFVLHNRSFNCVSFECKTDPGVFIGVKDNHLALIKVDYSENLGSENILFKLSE

B1: A00-0036 (Fab) (Fab, V domains shown)
VH: EVQLLESGGGLVQPGGSLRLSCAASGFTFSNYYMHWVRQAPGKGLEWVSSISSSSSYIYYADSVKGRFTISRDNSKNTLYLQMNSLRAEDTAVYYCARLGTRHDAFDIWGQGTLVTVSS
VL: QSVLTQPPSASGTPGQRVTISCSGSSSNIGNNAVNWYQQLPGTAPKLLIYASNMRRLGVPDRFSGSKSGTSASLAISGLRSEDEADYYCAAWDDSQKAVVFGGGTKLTVL
notes: parental clone as Fab; also called V30; parental clone (Fab)
B2: A26-2B01 (Fab) (Fab, V domains shown)
VH: B1 VH with S53A, S54R, G100A, D104N
VL: B1 VL with V99W
notes: Fab secreted by E. coli, tested as culture supernatant; also called V20
B3: A26-1F02 (Fab) (Fab, V domains shown)
VH: B1 VH with S53A, S54R, I58L, G100A, D104V
VL: B1 VL with L57P, A90E
notes: Fab secreted by E. coli, tested as culture supernatant; also called V18
B4: A25-2H11 (Fab) (Fab, V domains shown)
VH: B1 VH with S53A, S54R, G100A, H103N, D104N
VL: B1 VL with N31S, N35S, R56G, L57S, A98V
notes: Fab secreted by E. coli, tested as culture supernatant; also called V14
B5: A25-2C07 (Fab) (Fab, V domains shown)
VH: B1 VH with S53A, S54R, G100A, H103N, D104N
VL: B1 VL with R56G, L57S, A98G, V99Q
notes: Fab secreted by E. coli, tested as culture supernatant; also called V13
B6: A23-1A05 (Fab) (Fab, V domains shown)
VH: B1 VH with S53A, S54R, S56R, I58H, G100A, D104N
VL: B1 VL with N35S, R56V, L57I, A90G, V99L
notes: Fab secreted by E. coli, tested as culture supernatant; also called V8
B7: A25-3G05 (Fab) (Fab, V domains shown)
VH: B1 VH with N31H, S53A, S54L, K65R, G100A, H103R
VL: B1 VL with R56G, A90G, A98V, V99F
notes: Fab secreted by E. coli, tested as culture supernatant; also called V16
B8: A25-2C06 (Fab) (Fab, V domains shown)
VH: B1 VH with S53A, S54R, G100A, H103N, D104N
VL: B1 VL with N31R, R56V, L57I, A90G, A98R, V99Y
notes: Fab secreted by E. coli, tested as culture supernatant; also called V12
B9: A25-2B02 (Fab) (Fab, V domains shown)
VH: B1 VH with S53A, S54R, G100A, H103N, D104N
VL: B1 VL with N31R, R56V, A90W
notes: Fab secreted by E. coli, tested as culture supernatant; also called V10
B10: A26-2A05 (Fab) (Fab, V domains shown)
VH: B1 VH with S53A, S54R, G100A, D104G
VL: B1 VL with L57M, V99F
notes: Fab secreted by E. coli, tested as culture supernatant; also called V19
B11: A25-2D01 (Fab) (Fab, V domains shown)
VH: B1 VH with S53A, S54R, G100A, H103N, D104N
VL: B1 VL with N31R, R56V, L57I, V99W
notes: Fab secreted by E. coli, tested as culture supernatant; also called V9
B12: A25-2E04 (Fab) (Fab, V domains shown)
VH: B1 VH with S53A, S54R, G100A, H103N, D104N
VL: B1 VL with S26C, N31R, R56V, L57I, A90E, A98G
notes: Fab secreted by E. coli, tested as culture supernatant; also called V11
B13: A25-2C02 (Fab) (Fab, V domains shown)
VH: B1 VH with S53A, S54R, G100A, H103N, D104N
VL: B1 VL with N31R, R56V, L57S, A90W, A98V, V99G
notes: Fab secreted by E. coli, tested as culture supernatant; also called V15
B14: A25-3H04 (Fab) (Fab, V domains shown)
VH: B1 VH with N31R, S53A, S54Q, Y57H, K65E, G100A, H103Q, D104N
VL: B1 VL with N31R, L57S, A90S, A98V
notes: Fab secreted by E. coli, tested as culture supernatant; also called V17
B15: A00-0070 (Fab) (Fab, V domains shown)
VH: EVQLLESGGGLVQPGGSLRLSCAASGFTFSDYYMNWVRQAPGKGLEWVSSISSSSSYIYYADSVKGRFTISRDNSKNTLYLQMNSLRAEDTAVYYCARDIGGMDVWGQGTLVTVSS
VL: QSVLTQPPSASGTPGQRVTISCTGSSSNIGAVYNVHWYQQLPGTAPKLLIYRNNQRPSGVPDRFSGSKSGTSASLAISGLRSEDEADYYCQSYDSSRWVFGGGTKLTVL
notes: parental clone as Fab; also called V29; parental clone (Fab)
B16: A12-1H08 (Fab) (Fab, V domains shown)
VH: B15 VH with N35D, S53R, S54A, I58V
VL: B15 VL
notes: Fab secreted by E. coli, tested as culture supernatant; also called V4
B17: A10-1C04 (Fab) (Fab, V domains shown)
VH: B15 VH with S53R, S54Y
VL: B15 VL with N34D, S92T
notes: Fab secreted by E. coli, tested as culture supernatant; also called V1
B18: A12-1E04 (Fab) (Fab, V domains shown)
VH: B15 VH with S53R, S54Y, S56G, I58V
VL: B15 VL with N34D
notes: Fab secreted by E. coli, tested as culture supernatant; also called V2
B19: A13-1F07 (Fab) (Fab, V domains shown)
VH: B15 VH with D31V, S53R, S54Y, S56G, I58V
VL: B15 VL with S96R
notes: Fab secreted by E. coli, tested as culture supernatant; also called V6
B20: A13-1G05 (Fab) (Fab, V domains shown)
VH: B15 VH with M34V, S53R, S54Y, S56G, I58V
VL: B15 VL
notes: Fab secreted by E. coli, tested as culture supernatant; also called V7
B21: A12-1H04 (Fab) (Fab, V domains shown)
VH: B15 VH with N35D, S53R, S54Y, S56G, I58V
VL: B15 VL
notes: Fab secreted by E. coli, tested as culture supernatant; also called V3
B22: A13-1F05 (Fab) (Fab, V domains shown)
VH: B15 VH with S53R, S54Y, S56G
VL: B15 VL
notes: Fab secreted by E. coli, tested as culture supernatant; also called V5

The binders below were run against T1, biotinylated 6His tag-AviTag-linked … (assay: SPR, IL-33 on chip, Fab supernatant as analyte).
Description: (§1) The library after the enrichment was used to construct a library of Escherichia coli secreting and expressing Fab. The culture supernatants of several hundreds of clones of Escherichia coli were subjected to measurement of dissociation rate constant (koff) by surface plasmon resonance (SPR) (ProteOn XPR36, available from Bio-Rad Laboratories, Inc.). The biotinylated human IL-33 protein (4 μg/mL) and cynomolgus monkey IL-33 protein (4 μg/mL) were loaded as ligands on a sensor chip (NLC sensor chip, available from Bio-Rad Laboratories, Inc.), to immobilize the human IL-33 protein at an amount equivalent to 1300 to 1600 RU, and the cynomolgus monkeyIL-33 protein at an amount equivalent to 1100 to 1500 RU. The culture supernatant of Escherichia coli was then loaded thereon as analyte to obtain a sensorgram with association phase of one minute and dissociation phase of 10 to 30 minutes. The sensorgram was subjected to interspot correction and blank correction using an SPR data analysis program (ProteOn Manager v3.1.0, available from Bio-Rad Laboratories, Inc.), and then values of koff were determined by off-rate analysis of Langmuir model.

| Binder | Human IL-33 Binding Amount (RU) | koff [s⁻¹] |
| --- | --- | --- |
| B1 | 78 | 0.0152 |
| B2 | 364 | 1e-05 |
| B3 | 96 | 1e-05 |
| B4 | 534 | 1.22e-05 |
| B5 | 334 | 3.41e-05 |
| B6 | 52 | 1.58e-05 |
| B7 | 135 | 1.34e-05 |
| B8 | 480 | 1.36e-05 |
| B9 | 256 | 1e-05 |
| B10 | 153 | 1e-05 |
| B11 | 950 | 1e-05 |
| B12 | 195 | 1.27e-05 |
| B13 | 930 | 1e-05 |
| B14 | 0.62 | 1e-05 |
| B15 | 571 | 0.00427 |
| B16 | 77 | 1e-05 |
| B17 | 26 | ≤ 1e-05 |
| B18 | 414 | 2.19e-05 |
| B19 | 112 | 1e-05 |
| B20 | 59 | 1e-05 |
| B21 | 94 | 1.94e-05 |
| B22 | 127 | 1.32e-05 |

Biological target: T2, 6His-AviTag-linked cynomolgus monkey …
Assay: SPR, IL-33 on chip, Fab supernatant as analyte
Description: as §1

| Binder | Cynomolgus Monkey IL-33 Binding Amount (RU) | koff [s⁻¹] |
| --- | --- | --- |
| B1 | 59 | 0.0347 |
| B2 | 363 | 1e-05 |
| B3 | 100 | 1e-05 |
| B4 | 492 | 2.57e-05 |
| B5 | 330 | 7.37e-05 |
| B6 | 54 | 2.61e-05 |
| B7 | 143 | 2.02e-05 |
| B8 | 501 | 1.59e-05 |
| B9 | 237 | 1e-05 |
| B10 | 147 | 1e-05 |
| B11 | 832 | 1e-05 |
| B12 | 199 | 1e-05 |
| B13 | 839 | 1e-05 |
| B14 | 179 | 1e-05 |
| B15 | 270 | 0.00522 |
| B16 | 102 | 7.51e-05 |
| B17 | 20 | 0.000165 |
| B18 | 512 | 5.58e-05 |
| B19 | 151 | 3.48e-05 |
| B20 | 80 | 5.45e-05 |
| B21 | 131 | 4.83e-05 |
| B22 | 171 | 5.79e-05 |
